Data: US20260092124A1

Legend:
human CD40 (human) [1] = target: human CD40 (human) (UniProt P25942); assay: cell binding (GpL luciferase, HT1080-CD40); single representative experiment
human CD40 (human) [2] = target: human CD40 (human) (UniProt P25942); assay: cell binding (GpL luciferase, HT1080-CD40); mean, n=5

human CD40 (human), sequence (P25942 21-277): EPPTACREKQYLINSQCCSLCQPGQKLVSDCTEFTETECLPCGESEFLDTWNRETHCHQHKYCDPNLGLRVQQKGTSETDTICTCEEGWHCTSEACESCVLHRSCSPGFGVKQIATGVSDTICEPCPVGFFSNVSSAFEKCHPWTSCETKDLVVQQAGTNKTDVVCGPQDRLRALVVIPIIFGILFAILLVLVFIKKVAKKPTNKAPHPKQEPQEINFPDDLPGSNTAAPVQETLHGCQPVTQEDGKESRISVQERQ

Row | Substance | Kd (human CD40 (human) [1]) [µg/mL] | Kd (human CD40 (human) [2]) [µg/mL]
1 | APX005M IgG1 variant | 0.26 | 0.274
2 | CP-870,893 IgG1 variant | 0.35 | 0.334
3 | G28.5 IgG1 variant | 0.08 | 0.086
